Source: patent US20220135701A1 (Genentech, published 2022)

How the values were obtained:
Experiment in all cases: SPR BIAcore T200, Ab captured, 37C
mouse MerTK = target: T1, mouse MerTK (mouse, UniProt Q60805 23-496)
T1 construct: also called MuMER
T1 sequence (looked up): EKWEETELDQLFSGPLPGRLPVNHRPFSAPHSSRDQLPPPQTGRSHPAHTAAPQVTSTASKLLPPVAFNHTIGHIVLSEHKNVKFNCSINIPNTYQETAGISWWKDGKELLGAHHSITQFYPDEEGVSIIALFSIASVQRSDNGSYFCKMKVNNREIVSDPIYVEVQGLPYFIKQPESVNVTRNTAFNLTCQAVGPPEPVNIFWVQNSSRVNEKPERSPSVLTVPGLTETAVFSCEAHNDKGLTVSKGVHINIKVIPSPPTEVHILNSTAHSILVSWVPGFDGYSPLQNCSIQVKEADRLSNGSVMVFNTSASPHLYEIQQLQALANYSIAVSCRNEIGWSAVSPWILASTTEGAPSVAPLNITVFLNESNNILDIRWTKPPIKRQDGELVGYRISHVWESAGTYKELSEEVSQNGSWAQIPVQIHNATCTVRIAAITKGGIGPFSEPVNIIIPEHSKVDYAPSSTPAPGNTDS
Description: (§1) Each rabbit and humanized antibody was subjected to a binding assay to determine its affinity to MerTK derived from various species.
(§2) All binding affinity determinations were obtained using Surface Plasmon Resonance (SPR) measurements from a BIAcore™-T200 instrument. Briefly, each rabbit or humanized antibody was captured to achieve approximately 100 RU (Response Units). Then, 3-fold serial dilutions of MerTK from various species (0.4 nM to 100 nM) diluted in HBS-EP buffer (0.01M HEPES pH 7.4, 0.15M NaCl, 3 mM EDTA and 0.05% v/v surfactant P20) was injected into the BIAcore™-T200 instrument at 25° C. or 37° C. with a flow rate of 30 μl/min. Association rates (kₒₙ) and dissociation rates (koff) were calculated using a simple one-to-one Langmuir binding model (BIAcore T200 evaluation software version 2.0). The equilibrium dissociation constant (KD) was calculated as the ratio koff/kₒₙ.

cynomolgus monkey MerTK = target: T2, cynomolgus monkey MerTK (cynomolgus monkey, UniProt A0A2K5V1H9 32-505)
T2 construct: Soluble analyte in SPR; also called Cyno MerTK
T2 sequence: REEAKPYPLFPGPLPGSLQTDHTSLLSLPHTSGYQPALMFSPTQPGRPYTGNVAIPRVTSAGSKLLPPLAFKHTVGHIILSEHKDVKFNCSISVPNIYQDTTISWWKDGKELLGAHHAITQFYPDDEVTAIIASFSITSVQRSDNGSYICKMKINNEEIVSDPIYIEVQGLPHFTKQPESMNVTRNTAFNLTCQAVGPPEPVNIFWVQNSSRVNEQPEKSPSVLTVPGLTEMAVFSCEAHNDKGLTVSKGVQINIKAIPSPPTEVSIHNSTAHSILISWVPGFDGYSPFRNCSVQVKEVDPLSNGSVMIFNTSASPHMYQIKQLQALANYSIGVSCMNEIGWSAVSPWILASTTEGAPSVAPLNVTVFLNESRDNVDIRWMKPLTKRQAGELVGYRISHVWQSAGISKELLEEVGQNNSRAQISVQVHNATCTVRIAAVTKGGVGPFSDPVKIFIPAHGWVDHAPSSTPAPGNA
Description: as §1, §2

human MerTK = target: T3, human MerTK (human, UniProt Q12866 26-499)
T3 construct: also called HuMER
T3 sequence: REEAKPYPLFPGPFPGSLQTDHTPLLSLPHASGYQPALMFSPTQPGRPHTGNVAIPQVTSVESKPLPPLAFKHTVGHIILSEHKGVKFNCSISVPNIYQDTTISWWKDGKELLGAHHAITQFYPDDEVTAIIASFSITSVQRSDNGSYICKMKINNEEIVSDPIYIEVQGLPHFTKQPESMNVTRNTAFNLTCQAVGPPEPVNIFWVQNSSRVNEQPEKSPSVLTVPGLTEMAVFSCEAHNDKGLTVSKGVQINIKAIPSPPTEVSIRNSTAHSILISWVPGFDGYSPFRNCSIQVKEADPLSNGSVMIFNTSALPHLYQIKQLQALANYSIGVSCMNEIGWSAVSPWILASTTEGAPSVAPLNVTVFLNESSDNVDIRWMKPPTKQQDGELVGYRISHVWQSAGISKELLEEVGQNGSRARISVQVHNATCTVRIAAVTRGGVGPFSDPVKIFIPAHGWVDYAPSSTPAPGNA
Description: as §1, §2

B1: h10F7.v16 (antibody, V domains shown)
VH: EVQLVESGGGLVQPGGSLRLSCAVSGFSLSGYAMSWVRQAPGKGLEYIGVISSSGSSYYPSWAKGRFTISKDNSKNTLYLQMGSLRAEDMAVYYCARVQFYVGYAVYGYGIIDRLDLWGQGTLVTVSS
VL: DIVLTQSPDSLAVSLGERATINCQSSKSVYNNNWLSWYQQKPGQPPKLLIYRASTLESGVPDRFSGSGSGTDFTLTISSLQAEDVAVYFCAGGYSSSSSANAFGGGTKVEIK
notes: Humanized, human IgG1; also called 10F7 Fully Humanized; 10F7 Humanized polished mAb
**Q.** Which results are given for B1?
**A.** Kd (mouse MerTK): 1.4 nM; Kd (cynomolgus monkey MerTK): 2.1 nM; Kd (human MerTK): 4.9 nM
